Values quoted from earlier work in publication PMC9958082.

Target: E-cadherin (Homo sapiens) (UniProt P12830)
Settings: cited from earlier work

Chain of UniProt P12830 (P12830 155-709): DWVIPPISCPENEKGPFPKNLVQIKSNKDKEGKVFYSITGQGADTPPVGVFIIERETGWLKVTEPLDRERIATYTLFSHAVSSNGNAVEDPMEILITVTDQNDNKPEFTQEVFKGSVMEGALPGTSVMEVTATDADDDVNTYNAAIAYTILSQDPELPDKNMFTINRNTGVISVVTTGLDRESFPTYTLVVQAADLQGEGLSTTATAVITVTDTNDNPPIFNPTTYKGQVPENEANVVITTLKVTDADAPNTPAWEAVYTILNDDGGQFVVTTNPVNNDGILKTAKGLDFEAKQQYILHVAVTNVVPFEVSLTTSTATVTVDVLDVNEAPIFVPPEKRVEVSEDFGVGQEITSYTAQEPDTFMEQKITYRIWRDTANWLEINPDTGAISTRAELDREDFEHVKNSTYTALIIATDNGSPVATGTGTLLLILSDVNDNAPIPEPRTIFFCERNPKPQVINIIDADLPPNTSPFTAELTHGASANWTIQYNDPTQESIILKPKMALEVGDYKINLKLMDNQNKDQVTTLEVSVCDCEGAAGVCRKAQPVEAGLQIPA

Substance: HA (hemagglutinin complex) (from UniProt P46085)
- Kd: 2300 nM
